Source: PMC3150472 (Structure (London, England : 1993), 2011)
One block for each molecule: values may come before it. *1 amine or outer side, *2 acyl side, *3 side chain or, on linkers, in order; H or OH if unused. Where no end group is shown, it is not given here. [ ]: non-standard residue; d: D form. CEL = Nε-carboxy-ethyl-lysine, CC(NCCCC[C@H](N[*:1])C(=O)[*:2])C(=O)[*:3]; CML = Nε-carboxy-methyl-lysine, O=C([C@H](CCCCNCC(=O)[*:3])N[*:1])[*:2]

Legend:
RAGE = details: free amino acid, not embedded in a peptide; ref Xie et al., 2008; cited from earlier work
V domain of RAGE = V domain of RAGE (Homo sapiens, UniProt Q15109); test: Tryptophan fluorescence titration, wild type V domain; details: single site binding isotherm, 25 °C, pH 6.5, 100 mM NaCl
NMR gradient diffusion = biological target: the molecule itself; test: NMR gradient diffusion
[1] = biological target: V domain of RAGE (wild type) (human, UniProt Q15109 24-125); test: other fluorescence titration
R98A V domain of RAGE = R98A V domain of RAGE (human, UniProt Q15109 24-125, R98A); test: other fluorescence titration
Sequence of R98A V domain of RAGE (Q15109 24-125 R98A): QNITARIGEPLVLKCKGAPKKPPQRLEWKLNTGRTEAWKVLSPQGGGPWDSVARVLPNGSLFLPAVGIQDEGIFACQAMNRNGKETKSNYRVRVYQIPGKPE

K52A V domain of RAGE = K52A V domain of RAGE (human, UniProt Q15109 24-125, K52A); test: other fluorescence titration
Sequence of K52A V domain of RAGE (Q15109 24-125 K52A): as the sequence (Q15109 24-125 R98A) above, with K29A, A75R counted along it

[2] = biological target: K52A, R98A V domain of RAGE (human, UniProt Q15109 24-125, K52A | R98A); test: other fluorescence titration
Sequence of K52A, R98A V domain of RAGE (Q15109 24-125 K52A/R98A): as the sequence (Q15109 24-125 R98A) above, with K29A counted along it

Molecule: CC(NCCCC[C@H](N)C(=O)O)C(=O)O (stereo partly shown) [CEL, Nε-carboxy-ethyl-lysine]
- binding to RAGE (RAGE): do not bind

Molecule: N[C@@H](CCCCNCC(=O)O)C(=O)O [CML, Nε-carboxy-methyl-lysine]
- binding to RAGE (RAGE): do not bind

Molecule: CC(C)C[C@H](NC(=O)[C@H](CC(=O)O)NC(=O)[C@H](CCCCNC(C)C(=O)O)NC(=O)[C@@H](N)Cc1ccccc1)C(=O)NCC(=O)N[C@@H](CCC(=O)O)C(=O)N[C@@H](CCC(=O)O)C(=O)O (stereo partly shown) [F(CEL)DLGEE]
- Kd (V domain of RAGE): 93 ± 6 µM

B1: VC1 domain of RAGE (wild type) (domain or fragment, human, UniProt Q15109 23-243, looked up)
chain: AQNITARIGEPLVLKCKGAPKKPPQRLEWKLNTGRTEAWKVLSPQGGGPWDSVARVLPNGSLFLPAVGIQDEGIFRCQAMNRNGKETKSNYRVRVYQIPGKPEIVDSASELTAGVPNKVGTCVSEGSYPAGTLSWHLDGKPLVPNEKGVSVKEQTRRHPETGLFTLQSELMVTPARGGDPRPTFSCSFSPGLPRHRALRTAPIQPRVWEPVPLEEVQLVVE
- binding result (NMR gradient diffusion): binds

Further lines, results first:

- Kd (V domain of RAGE): 104 ± 5 µM
Molecule: CC(NCCCC[C@H](NC(=O)[C@H](Cc1ccccc1)NC(=O)[C@H](CCC(=O)O)NC(=O)[C@@H](N)CC(=O)O)C(=O)N[C@@H](C)C(=O)N[C@@H](CC(=O)O)C(=O)N[C@@H](CCC(=O)O)C(=O)O)C(=O)O (stereo partly shown) [DEF(CEL)ADE]

- Kd [1]: 87 ± 5 µM
Molecule: F[CML]DLGEE [F(CML)DLGEE]

- Kd (R98A V domain of RAGE): 685 ± 26 µM
- Kd (K52A V domain of RAGE): 560 ± 32 µM
- Kd [2]: 912 ± 42 µM
Molecule: DEF[CEL]ADE [DEF(CEL)ADE]

- Kd [1]: 97 ± 3 µM
Molecule: DEF[CML]ADE [DEF(CML)ADE]
